In publication PMC6698748 one finds stoichiometry N data, which are given here for 2 substances.

Assay [1] has as its target MtsR (wild type, recombinant, untagged) (Streptococcus pyogenes (group A streptococcus), strain MGAS10870, serotype M3). In words: SEC.
Assay [2] addresses MtsR F187A (Streptococcus pyogenes (group A streptococcus), strain MGAS10870, serotype M3). Nature of the assay: SEC. (In general: Size exclusion chromatography separates by hydrodynamic size, large species first.)

“MtsR (wild type, recombinant, untagged) (natural protein)”: the stoichiometry N in assay [1] amounted to 2.

As to MtsR F187A (natural protein), the stoichiometry N in assay [2] was 2.

Usually stoichiometry N stands for a count of units in the complex or per binding partner.
